Where no end group is shown, it is not given here.
Experiments:
[1] = biological target: T1, canine Abeta 1-40 peptide (Canis lupus familiaris, UniProt Q28280); experiment: ELISA titration of affinity-purified antibodies from rabbit serum; format: binding, dog
T1 construct: made in house; host or cells: chemical synthesis (Fmoc solid phase), no expression host
From the text: Antibody purification was made by affinity chromatography in columns of 4B Sepharose activated with BrCN (GE healthcare 15gr) according to standard procedures. Synthetic Abeta1-40 peptide (SEQ ID NO 1) was linked to the BrCN and used as antigen for the affinity purification of antibodies. Anti-Abeta28-40 antibodies were purified from rabbit serum samples presenting the highest level of titers, i.e. serum samples collected on day 31 after immunization (example 2). The same was true for serum samples used for purification of anti-Abeta 1-40 antibodies. Purified antibodies were firstly eluted with an acid solution of 100 mM glycine in PBS (pH 2.5) and, then with a basic solution of 100 mM glycine and 4 M urea in PBS (pH 9)
The purified antibodies were quantified by ELISA on 96-well plates developed by the biotin-avidin-peroxidase method. Plate sensitization was made overnight at 4° C. with […] of canine Abeta 1-40 peptide diluted in 50 mM NaHCO3 pH 9.6. The ELISA procedure was then carried out as explained in example 2.

Abeta 1-40 peptide = Abeta 1-40 peptide (Canis lupus familiaris, UniProt Q28280); experiment: Anti-Abeta IgG titration (ELISA) of serum from immunized rabbits; format: in vivo, rabbit
Method: To design a veterinary vaccine composition that generates a high level of high affinity antibodies with cross reactivity to the soluble Abeta 1-40 peptide and the plaques in the CNS of dogs with CDS, the relative immunogeneicity of the synthesized sequences of example 1 were characterized separately. To do that, SEQ ID NO 1 and SEQ ID NO 3 were administered conjugated with KLH and mixed with 1 mg of Alum (Sigma, St Louis, U.S.A.) an adjuvant of general veterinary use. The relative immunogenicity of the two peptide sequences was compared according to standard titration of the immune products generated.
Experiments were performed in adult female New Zealand White rabbits weighing between 1.5-2 kg at the beginning of the study. They were kept on a 12 h light/12 h dark cycle and housed with free access to food and water. All animals were manipulated according to the European legislation (86/609/EEC) for animal handling and experimentation. Procedures were approved by the Ethic Committee of the Universitat de Barcelona, under supervision of the Generalitat de Catalunya; all efforts were made to minimize animal suffering and to use only the number of animals necessary to produce reliable scientific data.
Rabbits were subcutaneously immunized with 100 μg of peptide from either: a) SEQ ID NO 3 conjugated with KLH and 1 mg Alum used as adjuvant (n=2); b) SEQ ID NO 1 conjugated with KLH and 1 mg Alum used as adjuvant (n=2); or c) KLH and 1 mg Alum (no peptide n=2). The immunization protocol consisted of a dose subcutaneously delivered up to six sites near the back of the neck, and repeated at days 11, 21, 31 and 41.
Samples of serum were collected from each rabbit at days 0, 21, 31 and 51. Each time, 5 ml blood samples were collected from the ear marginal vein in plastic tubes with no additive. At day 71 rabbits were anaesthetized and exanguinated. Blood samples were then kept at room temperature (RT) for 30 min, afterwards they were centrifuged for 10 min at 3000 rpm. Supernatants were collected as serum samples, aliquoted and stored at −80° C.
Titration of serum samples to detect the presence of antibodies that had been raised by SEQ ID NO 1 and SEQ ID NO 3 was performed by Enzime-Linked Immunosorbent Assays (ELISA) on 96-well plates developed by the biotin-avidin-peroxidase method. Plate sensitization was made overnight at 4° C. with 2 μg/ml of Abeta 1-40 peptide diluted in 50 mM NaHCO3, pH 9.6. […] After washing, specific binding was detected by incubation with Biotin conjugated anti-Rabbit IgG antibody (Sigma, St. Louis, Mo., U.S.A) diluted 1/20000 in TBS for 1 hour at RT. […] Plates were densitometrically analyzed at 450 nm with a Tecan Sunrise Absorbance Reader apparatus (Tecan Iberica, Madrid, Spain). […]

[2] = biological target: T1, canine Abeta 1-40 peptide; experiment: Anti-Abeta IgG titration (ELISA) of serum from immunized dogs; format: in vivo, dog
Method: To validate the immunogenicity of the peptide according to the present invention, dogs were immunized with the synthesized Abeta 28-40 peptide (SEQ ID NO 3) and antibody generation was assessed in serum samples by ELISA. To do that, the peptide fragment was administered conjugated with KLH and mixed with 1 mg Alum (Sigma, St. Louis, Mo., U.S.A.), an adjuvant of general veterinary use. The immunogenicity of the Abeta28-40 peptide was compared versus pre-immune serum according to standard titration of the immune products generated.
Male and female dogs of various breeds, sex and ages certified by their medical records from the veterinary hospital Ars Veterinaria of Barcelona, Spain, were used in this study. In all cases, pet owners formally informed approved the treatment of their dogs. All animals were treated according to European legislation on animal experimentation (86/609/EU), and procedures were approved by the Ethical Committee of the University of Barcelona. All efforts were made to minimize animal suffering and to use no more than the number of animals needed for reliable scientific data.
Dogs were subcutaneously immunized with either: a) 100 μg per animal of SEQ ID NO 3 conjugated with KLH and 1 mg Alum used as adjuvant (n=2) or b) 100 μg per animal of KLH and 1 mg Alum (no peptide n=2). […]

[3] = tested on: Aβ 1-40 and Aβ 1-42, diffuse plaque; conditions: aged beagles (8.4-12.4 years) immunized for 2.4 years; several cortical regions; cited from earlier work
aged beagles = aged beagles (8.4-12.4 years) immunized for 2.4 years; cited from earlier work

Sequence of Abeta 1-40 peptide (Q28280 7-46 limits assumed): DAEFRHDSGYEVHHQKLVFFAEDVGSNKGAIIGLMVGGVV
T1 sequence (Q28280 7-46): as the sequence (Q28280 7-46 limits assumed) above

Substance | titers of anti-Abeta antibodies in the basic elution ([1]; basic elution (100 mM glycine, 4 M urea, pH 9), slightly lower than the acid elution) | titers of specific antibodies against canine Abeta1-40 in purified sera ([1]; day 31 serum of immunized rabbits, affinity purified on Abeta1-40 column) | serum dilution that presents half of the maximal binding (B1/2) (Abeta 1-40 peptide; 100 μg peptide s.c. conjugated with KLH + 1 mg Alum, repeated days 11, 21, 31, 41, serum of day 31) | immunogenic response compared with SEQ ID NO 1 (Abeta 1-40 peptide; comparison of B1/2 dilutions of day 31) | specific production of antibodies in serum samples (Abeta 1-40 peptide; peptide-KLH + Alum s.c., from day 21 following the first immunization) | day of highest levels of immunization (Abeta 1-40 peptide; peptide-KLH + Alum s.c., serum days 0, 21, 31, 51) | specific production of anti-Abeta antibodies in serum samples ([2]; 100 μg per animal conjugated with KLH + 1 mg Alum s.c., repeated days 31, 61, 75, day 30 after first immunization) | day of highest values of optic density ([2]; peptide-KLH + Alum s.c., serum days 0, 30, 60, 74, 90) | extent of diffuse plaque accumulation [3] | levels of soluble and insoluble Aβ 1-40 and Aβ 1-42 [3] | measures of learning, spatial attention, or spatial memory (aged beagles)
KGAIIGLMVGGVV (also: KLH conjugate) [SEQ ID NO 3, canine Abeta protein amino acids 28 to 40; tested conjugated with KLH plus Alum] | high titers | High titers | 1/611 | higher immunogenic response | detected | 31 days | detected | 74 days |  |  | 
fibrillar Aβ (1-42): fibrillar Aβ (1-42) formulated with aluminum salt (Alum), Head et al. 2008 |  |  |  |  |  |  |  |  | significantly decreased | significantly decreased | no improvement

Source: patent US20110129488A1, “IMMUNOTHERAPY COMPOSITIONS FOR THE TREATMENT AND PREVENTION OF AMYLOIDOSIS” (MEDIVET PHARMA, S.L., priority 2008, published 2011)
